Experiments:
c-Src SH2 = experiment: SH2 binding enrichment of the phosphorylated peptide, bacterial display (enrichment ratio); higher = better substrate or ligand; peptides without Tyr show the background
SHP2-C SH2 = experiment: as above
Grb2 SH2 = Grb2 SH2 (UniProt P62993); experiment: as above
Fer (mouse) = experiment: phosphorylation enrichment, bacterial display (enrichment ratio); higher = better substrate or ligand; peptides without Tyr show the background
c-Src = experiment: as above
Fes = Fes (UniProt P07332); experiment: as above
Chain of Fes (P07332 whole entry, looked up): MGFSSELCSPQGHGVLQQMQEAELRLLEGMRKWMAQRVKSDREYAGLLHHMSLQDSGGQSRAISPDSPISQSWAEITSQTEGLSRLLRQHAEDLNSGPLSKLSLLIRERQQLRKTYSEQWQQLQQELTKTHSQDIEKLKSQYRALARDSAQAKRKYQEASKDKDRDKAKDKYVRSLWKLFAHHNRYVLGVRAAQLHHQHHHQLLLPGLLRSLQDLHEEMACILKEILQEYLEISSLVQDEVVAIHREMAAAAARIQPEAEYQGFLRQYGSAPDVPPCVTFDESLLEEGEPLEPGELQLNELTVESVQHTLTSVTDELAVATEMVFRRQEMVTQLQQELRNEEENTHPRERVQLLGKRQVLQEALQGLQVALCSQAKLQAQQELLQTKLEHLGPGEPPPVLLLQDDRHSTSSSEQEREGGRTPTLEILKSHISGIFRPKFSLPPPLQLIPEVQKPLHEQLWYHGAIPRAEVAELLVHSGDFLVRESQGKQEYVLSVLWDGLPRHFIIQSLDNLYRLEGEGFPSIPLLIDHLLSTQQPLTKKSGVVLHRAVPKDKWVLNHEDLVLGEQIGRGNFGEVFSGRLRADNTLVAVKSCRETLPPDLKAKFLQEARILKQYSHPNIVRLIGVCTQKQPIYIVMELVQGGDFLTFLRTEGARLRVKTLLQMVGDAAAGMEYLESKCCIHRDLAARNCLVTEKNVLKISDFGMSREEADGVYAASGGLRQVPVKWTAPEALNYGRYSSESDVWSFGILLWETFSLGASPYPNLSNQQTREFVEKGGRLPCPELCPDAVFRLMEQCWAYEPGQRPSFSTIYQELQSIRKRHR

MERTK = MERTK (UniProt Q12866); experiment: as above
Chain of MERTK (Q12866 whole entry, looked up): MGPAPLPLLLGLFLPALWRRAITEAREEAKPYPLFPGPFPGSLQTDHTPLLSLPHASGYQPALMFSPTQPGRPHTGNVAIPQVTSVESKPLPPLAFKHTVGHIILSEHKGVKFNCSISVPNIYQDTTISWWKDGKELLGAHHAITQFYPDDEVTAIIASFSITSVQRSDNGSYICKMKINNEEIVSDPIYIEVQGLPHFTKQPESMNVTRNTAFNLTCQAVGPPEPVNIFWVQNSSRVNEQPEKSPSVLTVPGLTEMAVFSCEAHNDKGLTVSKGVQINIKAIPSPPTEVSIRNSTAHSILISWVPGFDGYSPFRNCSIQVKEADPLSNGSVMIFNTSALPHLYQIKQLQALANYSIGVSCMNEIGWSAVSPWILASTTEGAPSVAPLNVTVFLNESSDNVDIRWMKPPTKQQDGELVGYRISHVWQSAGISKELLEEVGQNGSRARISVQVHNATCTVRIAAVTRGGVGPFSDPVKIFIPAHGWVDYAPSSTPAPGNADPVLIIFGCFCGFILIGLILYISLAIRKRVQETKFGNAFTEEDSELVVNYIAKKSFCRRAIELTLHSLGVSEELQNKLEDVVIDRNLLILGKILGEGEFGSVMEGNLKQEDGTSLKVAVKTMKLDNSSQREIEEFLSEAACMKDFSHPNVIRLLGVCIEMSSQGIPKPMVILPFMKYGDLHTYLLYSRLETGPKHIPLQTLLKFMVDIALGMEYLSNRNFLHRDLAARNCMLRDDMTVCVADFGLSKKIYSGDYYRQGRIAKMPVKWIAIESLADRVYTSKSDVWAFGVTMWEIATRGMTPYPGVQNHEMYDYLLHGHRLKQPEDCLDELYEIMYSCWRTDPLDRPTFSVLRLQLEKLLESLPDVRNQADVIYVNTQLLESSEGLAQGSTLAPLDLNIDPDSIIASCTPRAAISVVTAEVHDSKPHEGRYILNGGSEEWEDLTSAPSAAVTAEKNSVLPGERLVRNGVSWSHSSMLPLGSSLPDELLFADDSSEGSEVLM

EPHB1 = EPHB1 (UniProt P54762); experiment: as above
FGFR3 = FGFR3 (UniProt P22607); experiment: as above
Chain of FGFR3 (P22607 whole entry, looked up): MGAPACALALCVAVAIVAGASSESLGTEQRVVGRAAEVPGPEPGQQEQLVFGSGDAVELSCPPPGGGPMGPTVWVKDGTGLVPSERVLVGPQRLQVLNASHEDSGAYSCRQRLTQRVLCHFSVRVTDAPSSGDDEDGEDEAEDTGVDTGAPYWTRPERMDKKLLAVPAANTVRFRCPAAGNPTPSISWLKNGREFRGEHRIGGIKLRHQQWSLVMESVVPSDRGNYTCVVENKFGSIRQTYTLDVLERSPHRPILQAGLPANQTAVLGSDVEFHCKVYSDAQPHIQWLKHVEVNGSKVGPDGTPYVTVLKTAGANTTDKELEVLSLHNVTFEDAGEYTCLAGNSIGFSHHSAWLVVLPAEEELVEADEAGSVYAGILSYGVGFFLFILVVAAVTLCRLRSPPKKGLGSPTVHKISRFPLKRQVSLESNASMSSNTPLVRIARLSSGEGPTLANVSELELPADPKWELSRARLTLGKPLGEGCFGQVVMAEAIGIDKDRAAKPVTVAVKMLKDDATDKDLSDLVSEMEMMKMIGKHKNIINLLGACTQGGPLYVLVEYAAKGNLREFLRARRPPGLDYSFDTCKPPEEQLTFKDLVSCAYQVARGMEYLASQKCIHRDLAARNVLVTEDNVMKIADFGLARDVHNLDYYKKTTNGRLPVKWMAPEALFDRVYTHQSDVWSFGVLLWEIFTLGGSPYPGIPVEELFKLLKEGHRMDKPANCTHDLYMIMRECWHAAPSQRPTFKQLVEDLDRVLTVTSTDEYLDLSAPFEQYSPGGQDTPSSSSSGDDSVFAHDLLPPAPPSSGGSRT

Fyn = Fyn (UniProt P06241); experiment: as above
EPHB2 = EPHB2 (UniProt P29323); experiment: as above
Chain of EPHB2 (P29323 whole entry, looked up): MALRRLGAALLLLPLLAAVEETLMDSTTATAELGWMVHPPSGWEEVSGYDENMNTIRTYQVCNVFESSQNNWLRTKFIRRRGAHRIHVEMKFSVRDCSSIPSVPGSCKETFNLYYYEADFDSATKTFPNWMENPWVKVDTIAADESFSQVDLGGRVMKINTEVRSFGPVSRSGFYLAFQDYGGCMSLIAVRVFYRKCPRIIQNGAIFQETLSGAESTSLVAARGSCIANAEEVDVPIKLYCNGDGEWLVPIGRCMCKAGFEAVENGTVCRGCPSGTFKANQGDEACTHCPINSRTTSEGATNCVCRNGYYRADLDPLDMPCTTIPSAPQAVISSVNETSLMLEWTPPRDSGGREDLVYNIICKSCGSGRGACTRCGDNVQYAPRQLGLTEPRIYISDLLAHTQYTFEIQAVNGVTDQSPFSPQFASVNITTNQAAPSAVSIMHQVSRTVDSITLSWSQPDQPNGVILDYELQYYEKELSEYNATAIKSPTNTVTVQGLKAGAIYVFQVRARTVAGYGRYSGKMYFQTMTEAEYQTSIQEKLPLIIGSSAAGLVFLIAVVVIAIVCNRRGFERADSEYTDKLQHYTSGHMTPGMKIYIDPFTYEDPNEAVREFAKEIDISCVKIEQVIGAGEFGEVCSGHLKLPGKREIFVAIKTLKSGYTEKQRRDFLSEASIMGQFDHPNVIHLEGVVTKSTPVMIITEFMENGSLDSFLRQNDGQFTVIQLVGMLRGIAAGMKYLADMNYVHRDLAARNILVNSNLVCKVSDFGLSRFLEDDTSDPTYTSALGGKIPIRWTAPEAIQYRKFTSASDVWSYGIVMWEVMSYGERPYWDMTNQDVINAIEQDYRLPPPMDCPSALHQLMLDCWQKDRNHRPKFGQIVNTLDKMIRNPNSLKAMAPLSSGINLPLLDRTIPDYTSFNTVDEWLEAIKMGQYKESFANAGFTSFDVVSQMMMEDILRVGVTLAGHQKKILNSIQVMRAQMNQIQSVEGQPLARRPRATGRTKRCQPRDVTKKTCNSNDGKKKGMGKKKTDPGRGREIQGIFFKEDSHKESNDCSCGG

AncSZ = experiment: as above
Hck = Hck (UniProt P08631); experiment: as above
Chain of Hck (P08631 whole entry, looked up): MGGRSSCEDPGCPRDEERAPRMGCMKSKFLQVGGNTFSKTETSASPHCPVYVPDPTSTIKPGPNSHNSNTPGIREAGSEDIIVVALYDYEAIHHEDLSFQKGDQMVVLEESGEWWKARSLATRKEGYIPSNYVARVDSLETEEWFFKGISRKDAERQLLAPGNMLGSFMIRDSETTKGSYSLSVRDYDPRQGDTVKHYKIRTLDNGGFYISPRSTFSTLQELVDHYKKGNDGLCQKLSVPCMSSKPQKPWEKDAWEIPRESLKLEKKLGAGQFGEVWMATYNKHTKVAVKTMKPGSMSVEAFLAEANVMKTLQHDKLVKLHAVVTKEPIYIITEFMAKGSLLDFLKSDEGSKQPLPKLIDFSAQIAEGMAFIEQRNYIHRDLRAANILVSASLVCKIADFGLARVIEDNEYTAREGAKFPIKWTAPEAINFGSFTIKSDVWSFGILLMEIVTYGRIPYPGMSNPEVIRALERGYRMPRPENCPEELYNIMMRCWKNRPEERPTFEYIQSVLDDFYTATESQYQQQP

c-Abl (mouse) = experiment: as above
Jak2 = Jak2 (UniProt O60674); experiment: as above
FGFR1 = FGFR1 (UniProt P11362); experiment: as above
Chain of FGFR1 (P11362 whole entry, looked up, the tested form may be a part): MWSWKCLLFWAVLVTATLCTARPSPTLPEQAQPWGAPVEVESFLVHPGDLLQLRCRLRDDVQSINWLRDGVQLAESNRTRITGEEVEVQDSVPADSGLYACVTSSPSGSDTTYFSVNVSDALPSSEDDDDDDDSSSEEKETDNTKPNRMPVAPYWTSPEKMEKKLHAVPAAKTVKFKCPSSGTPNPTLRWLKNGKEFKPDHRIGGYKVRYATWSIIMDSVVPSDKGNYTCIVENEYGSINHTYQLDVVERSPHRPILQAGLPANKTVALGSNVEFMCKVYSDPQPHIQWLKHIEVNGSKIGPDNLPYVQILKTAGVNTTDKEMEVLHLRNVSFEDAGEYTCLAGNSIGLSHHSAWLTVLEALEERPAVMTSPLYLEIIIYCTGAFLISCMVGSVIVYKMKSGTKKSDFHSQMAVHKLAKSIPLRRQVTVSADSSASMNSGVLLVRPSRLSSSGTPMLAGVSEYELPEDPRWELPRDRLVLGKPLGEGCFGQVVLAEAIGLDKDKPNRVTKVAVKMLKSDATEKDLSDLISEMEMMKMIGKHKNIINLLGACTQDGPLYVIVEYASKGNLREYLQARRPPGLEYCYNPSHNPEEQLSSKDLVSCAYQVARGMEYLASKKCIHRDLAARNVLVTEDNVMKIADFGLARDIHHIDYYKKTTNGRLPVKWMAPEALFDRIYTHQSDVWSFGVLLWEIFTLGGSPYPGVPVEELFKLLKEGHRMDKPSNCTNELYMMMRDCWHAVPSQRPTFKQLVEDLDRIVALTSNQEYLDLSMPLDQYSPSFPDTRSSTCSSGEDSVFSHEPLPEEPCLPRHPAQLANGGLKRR
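Wherever SH2 binding enrichment of the phosphorylated peptide, bacterial display is given: peptide library displayed on the E. coli surface as eCPX fusions, selected cells deep-sequenced, score is each peptide's frequency after selection divided by its frequency in the input.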
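Wherever phosphorylation enrichment, bacterial display is given: 11-residue human phosphosite peptides and single-mutation variants displayed on the E. coli surface, counted by deep sequencing, each peptide's frequency after selection divided by its frequency in the unselected input library; frequency after pTyr selection over input frequency; kinase dosed for 20-30% of maximal phosphorylation in three min.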

Sequence	SH2 binding enrichment (c-Src SH2)	SH2 binding enrichment (SHP2-C SH2)	SH2 binding enrichment (Grb2 SH2)	phosphorylation enrichment (Fer (mouse))	phosphorylation enrichment (c-Src)	phosphorylation enrichment (Fes)	phosphorylation enrichment (MERTK)	phosphorylation enrichment (EPHB1)	phosphorylation enrichment (FGFR3)	phosphorylation enrichment (Fyn)	phosphorylation enrichment (EPHB2)	phosphorylation enrichment (AncSZ)	phosphorylation enrichment (Hck)	phosphorylation enrichment (c-Abl (mouse))	phosphorylation enrichment (Jak2)	phosphorylation enrichment (FGFR1)
LMQAEYWHDPI [PPT1_Y185_V181M]	0.983	0.68	0.999	0.773	0.54	1.56	0.557	1.2	4.42	0.835	0.863	1.36	0.769	0.724	1.16	6.07
TEYSQYMRRKN [MAX_Y73_I71S]	0.397	0.411	0.653	0.443	0.523	0.622	0.558	0.476	0.508	0.536	0.563	0.674	0.562	0.418	0.507	0.548
DAKAIYDFTDT [PDK1_Y136]	0.604	0.6	0.896	5.43	5.87	1.15	5.88	1.43	0.665	7.96	1.85	1.3	3.18	1.03	0.994	0.604
TRSFKYLLLSM [NF1_Y491_YF]	1.05	1.21	1.05	0.38	0.426	1.07	0.399	0.663	0.548	0.386	0.51	1.12	0.44	0.706	0.977	0.43
KVPELYEIHKE [BCR_Y554]	0.701	0.751	0.996	0.976	0.603	1.08	0.619	0.93	0.817	0.631	0.868	1.03	0.853	0.714	0.766	0.593
SRLSAYPALEG [CD5_Y465_H461R]	0.437	0.69	0.899	0.391	0.533	0.803	0.496	0.348	0.469	0.425	0.495	0.723	0.436	0.471	0.674	0.486
NSNSDYVDILP [SH2D1B_Y127_V130I]	0.571	0.503	0.788	0.682	0.573	1.22	0.6	3.31	3.11	0.514	3.01	1.85	0.623	1	1.09	3.99
IPGRYYETGSI [PAX2_Y73_L69P]	1.67	0.743	0.777	0.331	0.437	0.646	0.405	0.451	0.498	0.454	0.595	0.505	0.428	0.616	0.573	0.492

Second part, led by results:

SH2 binding enrichment (c-Src SH2)	SH2 binding enrichment (SHP2-C SH2)	SH2 binding enrichment (Grb2 SH2)	Sequence	phosphorylation enrichment (Fer (mouse))	phosphorylation enrichment (c-Src)	phosphorylation enrichment (Fes)	phosphorylation enrichment (MERTK)	phosphorylation enrichment (EPHB1)	phosphorylation enrichment (FGFR3)	phosphorylation enrichment (Fyn)	phosphorylation enrichment (EPHB2)	phosphorylation enrichment (AncSZ)	phosphorylation enrichment (Hck)	phosphorylation enrichment (c-Abl (mouse))	phosphorylation enrichment (Jak2)	phosphorylation enrichment (FGFR1)
1.22	0.525	1	LSDGPYSNSFE [EPOR_Y485_P488S_YF]	1.36	0.83	1.65	0.858	0.982	0.976	1.23	1.11	1.49	0.915	1.2	1.18	1.07
0.53	0.718	0.95	GREYIYVDPMQ [PDGFRA_Y574_H570R]	1.21	1.86	0.801	4.27	6.9	8.94	1.73	8.24	3.12	2.05	5.21	1.17	12.7
0.452	0.741	0.793	VDSIEYEVASQ [SLC7A7_Y7_T5I]	0.464	0.466	1.18	0.545	0.594	0.729	0.491	0.618	1.22	0.567	0.821	1.36	0.451
0.696	1.01	1.15	MCDKEYFSVHN [MET_Y1234_Y1230C_YF]	0.506	0.576	0.866	0.404	0.692	1.47	0.505	0.482	1.31	0.453	0.586	1.11	1.78
1.98	0.649	0.791	TVLEPYTDPFF [ZC3H18_Y367_A368T_YF]	0.438	0.514	1.09	0.519	0.463	0.909	0.535	0.429	1.25	0.501	0.685	1.09	1.29
1.09	1.16	0.887	FSQQTYFRVSN [ABCD1_Y180_YF]	0.415	0.931	0.723	0.41	0.654	1.19	0.435	0.564	0.902	0.749	0.625	3.23	1.23
0.52	0.76	0.843	MARDIYRASFF [ALK_Y1278_YF]	0.375	0.597	0.797	0.472	0.425	0.449	0.566	0.434	0.67	0.661	3.1	0.608	0.435
0.588	0.527	0.873	LNCDRYSVGLL [PDE6A_Y275]	0.898	0.823	1.59	0.709	0.961	1.2	0.734	1.51	1.16	0.889	0.929	1.2	0.712
0.475	0.673	0.75	PEADKYRLTFA [FGG_Y300_YF]	0.546	0.568	1.18	0.451	0.887	0.78	0.553	0.697	1.05	0.76	0.918	1	0.626
